This passage reports IC50 and Kd results from article PMC2690590, “Functional recombinant MHC class II molecules and high-throughput peptide-binding assays” (Immunome Research, 2009).

For experiment [1], the target named is DR1GrpE: DR1 α chain 1–181 and β chain 1–190 fused C-terminally to GrpE, not biotinylated (human). Description: AlphaScreen or HTRF. On the technique in general: In Alpha technology, singlet oxygen from a donor bead excites a nearby acceptor bead.
For experiment [2], the target named is DP401: DPA1*0103/DPB1*0401 (human). Description: AlphaScreen or HTRF; direct LOCI: α and biotinylated β chains refolded with peptide titration, 48 h at 18°C; streptavidin donor beads and anti-MHC-II antibody acceptor beads; half saturation (EC50) fitted to Y = Bmax*X/(KD+X) and taken as approximate KD; pH as optimised for each MHC (DR2a at pH 6).
The target of experiment [3] is DR2a (DRA*0101/DRB5*0101) with non-biotinylated β chain, competitive LOCI assay (human). Description: AlphaScreen or HTRF.
Experiment [4] addresses DR2a (DRA*0101/DRB5*0101), biotinylated, direct LOCI assay at pH 6 (human). The experiment in a line: AlphaScreen or HTRF; direct LOCI: α and biotinylated β chains refolded with peptide titration, 48 h at 18°C; streptavidin donor beads and anti-MHC-II antibody acceptor beads; half saturation (EC50) fitted to Y = Bmax*X/(KD+X) and taken as approximate KD; pH as optimised for each MHC (DR2a at pH 6).

For experiment [5], the target named is DR3: DRA*0101/DRB1*0301 (human). Described as above.
In experiment [6] the target is DRB1*0813: DRA*0101/DRB1*0813 (human). The experiment is described as above.
For experiment [7], the target named is DRB3*0301: DRA*0101/DRB3*0301 (human). The experiment is described as above.
The target in experiment [8] is I-E^d (mouse MHC class II) (mouse) (UniProt P01904). Described as above.
The target of experiment [9] is DR4 (DRA*0101/DRB1*0401), biotinylated, LOCI assay (human). The experiment is described as above.

In general, IC50 refers to the concentration at which inhibition is half-maximal. Read a high IC50 as a need for much substance. A word on the Kd: it is a measure of binding affinity in units of concentration. A higher Kd goes with a looser complex.

Take FLYGALLLA [MBP peptide …]: in experiment [1], the IC50 turned out to be 3920 nM. Moreover, the Kd in experiment [2] worked out at 34 nM.
As for IQMLKNGKKIPKVEMS [Murine β2m peptide …], the IC50 in [1] was 1230 nM; in experiment [3], 3 nM. The Kd in experiment [4] was 6 nM; in [5], 21 nM; in experiment [6] it was 73 nM; in experiment [7], 70 nM; in experiment [8], 117 nM.
Consider YLFFYRKSV [TERT572Y peptide …], for which the IC50 in [1] was found to be 4290 nM. Besides, the Kd was 2650 nM in experiment [4], 1590 nM in experiment [9], 95 nM in [6] and 322 nM in experiment [8].
